B1: Rasip1 RA domain (residues 134-285) (domain or fragment, human, UniProt Q5U651 134-285, looked up)
chain: EPPLATRATAPPGVLKIFGAGLASGANYKSVLATARSTARELVAEALERYGLAGSPGGGPGESSCVDAFALCDALGRPAAAGVGSGEWRAEHLRVLGDSERPLLVQELWRARPGWARRFELRGREEARRLEQEAFGAADSEGTGAPSWRPQK
B2: Radil RA domain (residues 51-193) (domain or fragment, human, UniProt Q96JH8 51-193, looked up)
chain: DPAELSTQLSAPGVLKVFGDSVCTGTHYKSVLATGTSSARELVKEALERYALDPRQAGQYVLCDVVGQAGDAGQRWQARCFRVFGDSEKPLLIQELWKPREGLSRRFELRKRSDVEELAAKEVDTITAGINAQARRLQRSRAK
B4: Rap1B (residues 1-167), GMP-PNP bound (domain or fragment, human, UniProt P61224 1-167, looked up)
chain: MREYKLVVLGSGGVGKSALTVQFVQGIFVEKYDPTIEDSYRKQVEVDAQQCMLEILDTAGTEQFTAMRDLYMKNGQGFALVYSITAQSTFNDLQDLREQILRVKDTDDVPMILVGNKCDLEDERVVGKEQGQNLARQWNNCAFLESSAKSKINVNEIFYDLVRQINR

Like-named read-outs stand apart in the source and are kept apart here.

The series “NMR linewidths” deals with the molecule itself. Briefly: NMR linewidths.
The target of series [1] is B4. Briefly: ITC. A general note: ITC needs no label: the signal is the heat of the interaction.
In series [2] the target is B4. Briefly: ITC. The source holds these as a separate data set.
Series [3] concerns the target HRas (residues 1-189), GMP-PNP bound (human, UniProt P01112 1-189). Briefly: ITC.
The series “crystal structure” concerns the molecule itself. Briefly: crystal structure.
Series [4] addresses B4. Briefly: crystal structure.
In series [5] the target is B1. Briefly: ITC.
In series [6] the target is B2. Briefly: ITC.

HRas (residues 1-189), GMP-PNP bound, sequence (P01112 whole entry, the tested form may be a part): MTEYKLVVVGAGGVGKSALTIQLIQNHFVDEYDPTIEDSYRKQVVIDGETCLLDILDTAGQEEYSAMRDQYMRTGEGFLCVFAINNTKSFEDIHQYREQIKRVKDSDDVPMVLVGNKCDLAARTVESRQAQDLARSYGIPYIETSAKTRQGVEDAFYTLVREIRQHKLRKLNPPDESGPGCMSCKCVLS

As usually defined, the Kd is the constant that tells how readily two partners part at equilibrium. On to B1, for which, in the series “NMR linewidths”, the binding result was “binds”. For the same molecule, the figures for the Kd in series [1], in series [2] and in series [3] were 0.77 ± 0.09 µM, 0.9 µM and 2.2 µM, respectively.

Turning to B2, the results for the Kd in series [2] and in series [3] were 1.2 µM and 3.9 µM, respectively.

B3: trypsin-treated Rasip1 RA domain (domain or fragment, human, UniProt Q5U651 141-285, looked up)
chain: ATAPPGVLKIFGAGLASGANYKSVLATARSTARELVAEALERYGLAGSPGGGPGESSCVDAFALCDALGRPAAAGVGSGEWRAEHLRVLGDSERPLLVQELWRARPGWARRFELRGREEARRLEQEAFGAADSEGTGAPSWRPQK
On to B3, for which the binding result (in “crystal structure”; in series [4]) was “binds” throughout.

As a reminder, the stoichiometry N is a count of units in the complex or per binding partner. Take B4: the dH in series [5] was -3.4 kcal/mol; in series [6], -6.5 kcal/mol. For the same molecule, the figures for the “stoichiometry N” value in series [5] and in series [6] were 1.22 and 1.04, respectively.

The values above are taken from PMC5143164 (Structure (London, England : 1993), 2016).
